Here are results for 2 molecules from PMC2169300, “Signal-Regulated Pre-mRNA Occupancy by the General Splicing Factor U2AF”.

Series [1] concerns the target T1, His-Sam68 (mouse, UniProt Q60749 1-443). The series can be described thus: EMSA; dose-dependent; EMSA as described in cited ref [19]; buffer, salt, pH and temperature not given. The conditions noted are these: protein: recombinant; tags: His (pQE-32); chain copies: 2.
In series [2] the target is T1, His-Sam68. The series can be described thus: EMSA; 25 and 50 ng protein; EMSA as described in cited ref [19]; buffer, salt, pH and temperature not given. The following applies: protein: recombinant; tags: His (pQE-32); chain copies: 2. In general terms: In EMSA bound probe runs differently from free probe, usually more slowly.

T1 sequence (Q60749 whole entry): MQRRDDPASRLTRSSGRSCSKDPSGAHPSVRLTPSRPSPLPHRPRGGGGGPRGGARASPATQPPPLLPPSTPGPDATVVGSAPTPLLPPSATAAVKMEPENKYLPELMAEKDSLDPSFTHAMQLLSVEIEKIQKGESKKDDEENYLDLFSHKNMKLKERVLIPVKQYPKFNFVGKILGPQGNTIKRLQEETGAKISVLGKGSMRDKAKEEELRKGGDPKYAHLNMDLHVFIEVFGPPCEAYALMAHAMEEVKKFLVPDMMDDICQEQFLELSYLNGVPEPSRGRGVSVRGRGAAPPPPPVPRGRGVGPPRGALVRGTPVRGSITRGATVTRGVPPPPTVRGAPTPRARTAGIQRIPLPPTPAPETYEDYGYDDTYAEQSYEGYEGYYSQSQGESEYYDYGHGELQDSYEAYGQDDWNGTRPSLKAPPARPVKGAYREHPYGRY

GAAGAAGAGGAUUAUUAAAGACUAUUUGAUUAGA (ssRNA) [CD44 intronic Sam68 site RNA (wt)]: the binding result in the series with His-Sam68 [1] is reported as “binds”.

As for AUAGACAGAAUCAGCACCAGUGCUCAUGGAGAAAAUUGGACC (ssRNA) [CD44 v5 exonic Sam68 site RNA], the binding result with His-Sam68 [2] is “binds”.
